The text below walks through data of patent US20170129954A1 (PROTHENA BIOSCIENCES, published 2017).

In assay [1] the target is T1, human MCAM (antigen of the BLI kinetics in Example 7) (human, UniProt P43121 24-559, limits assumed).
T1 chain: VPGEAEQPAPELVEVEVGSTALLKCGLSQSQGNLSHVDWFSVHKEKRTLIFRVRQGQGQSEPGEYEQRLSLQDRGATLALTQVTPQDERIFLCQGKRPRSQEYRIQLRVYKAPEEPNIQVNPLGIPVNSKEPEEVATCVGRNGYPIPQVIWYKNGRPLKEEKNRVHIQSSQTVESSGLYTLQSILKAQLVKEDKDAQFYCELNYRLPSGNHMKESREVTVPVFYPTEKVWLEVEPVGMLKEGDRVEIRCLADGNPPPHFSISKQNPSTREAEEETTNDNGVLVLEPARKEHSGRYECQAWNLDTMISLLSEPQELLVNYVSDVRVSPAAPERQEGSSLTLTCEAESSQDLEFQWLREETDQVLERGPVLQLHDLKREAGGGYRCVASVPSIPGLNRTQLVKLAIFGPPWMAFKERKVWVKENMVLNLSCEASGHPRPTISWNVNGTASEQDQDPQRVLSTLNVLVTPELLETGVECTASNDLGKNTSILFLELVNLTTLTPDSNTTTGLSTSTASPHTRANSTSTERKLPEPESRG
Briefly: BLI, ForteBio Octet QK, apparent ka. The text has this:
(§1) Apparent ka, apparent kd and apparent KD are binding kinetic parameters obtained using ForteBio assay formats.
For orientation: Biolayer interferometry detects binding as a change in optical thickness at a sensor tip.

Assay [2] deals with T1, human MCAM (antigen of the BLI kinetics …). Kind of assay: BLI, ForteBio Octet QK, apparent kd.
Source text: as §1

B1: mouse anti-human MCAM monoclonal antibody clone 1749.1.3 (antibody, V domains shown)
VH: DVKLVESGGDLVKPGGSLKLSCAASGFTFSSYIMSWVRQTPEKRLEWVATISSGGSSTYYPDSVKGRFTISRDNAKNTLYLQMSSLKSEDTAMYYCTRDDDYDVKVFAYWGQGTLVTVSA
VL: DIVMSQSPSSLAVSAGEKVTMNCKSSRSLLNSRIRKNYLAWYQQKPGQSPKLLIYWASTRESGVPDRFTGSGSGTDFTLTISSVQAEDLAVYYCKQSYNLLTFGAGTKLELK
notes: Mouse hybridoma monoclonal antibody; also called m1749
A word on the kon: it is the rate constant with which the complex forms. For orientation: koff means the rate constant with which the complex falls apart. Regarding B1, the on-rate (kon) in assay [1] amounted to 1.41e+06 M⁻¹ s⁻¹. In addition, in assay [2], the koff amounted to 0.000402 s⁻¹.
